The results in this text go back to patent US20160264653A1 (published 2016).

The labels stand for the following.
B1: human ephrin-A4 ligand (EFNA4) expressed on the cell surface (ligand)
chain: LRHVVYWNSSNPRLLRGDAVVELGLNDYLDIVCPHYEGPGPPEGPETFALYMVDWPGYESCQAEGPRAYKRWVCSLPFGHVQFSEKIQRFTPFSLGFEFLPGETYYYISVPTPESSGQCLRLQVSVCCKERKSESAHPVGSPGES
notes: GPI-anchored; Cells used: HEK293T.hEFNA4 (retroviral overexpression), parental HEK293T (low level), Jurkat, Z138, K562, PC3, NTX tumor cells; also called hEFNA4; HEK293T.hEFNA4 cells

Where only a bound is given, the exact number is not on record here.

For experiment [1], the target named is T1, Fc portion of human IgG alone (human, UniProt P01857-1 100-330 = IgG part, limits assumed).
T1 construct: domain: Fc; also called human IgG Fcgamma1 fragment
Kind of experiment: flow cytometry on Jurkat cells (known to express EFNA) (FIG. 12A).

Experiment [2] has as its target T2, EphB4-Fc (human, UniProt P54760 16-539, limits assumed).
T2 construct: extracellular domain; not shown: human IgG1 Fc
T2 sequence (looked up): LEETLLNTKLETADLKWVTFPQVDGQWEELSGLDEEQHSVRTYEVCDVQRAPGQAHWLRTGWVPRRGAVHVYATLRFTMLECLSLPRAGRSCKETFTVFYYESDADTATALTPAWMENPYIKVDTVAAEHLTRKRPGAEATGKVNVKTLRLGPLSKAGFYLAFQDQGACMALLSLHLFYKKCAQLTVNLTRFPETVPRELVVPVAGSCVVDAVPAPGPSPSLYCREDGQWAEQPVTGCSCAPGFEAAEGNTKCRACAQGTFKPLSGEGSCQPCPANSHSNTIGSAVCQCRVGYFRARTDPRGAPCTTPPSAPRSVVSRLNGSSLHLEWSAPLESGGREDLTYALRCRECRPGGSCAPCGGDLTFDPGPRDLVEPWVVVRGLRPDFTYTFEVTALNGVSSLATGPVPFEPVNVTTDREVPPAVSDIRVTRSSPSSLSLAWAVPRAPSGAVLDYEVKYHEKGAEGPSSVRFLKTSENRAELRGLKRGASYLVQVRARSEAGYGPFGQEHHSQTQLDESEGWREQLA
Nature of the experiment: flow cytometry; EphB-Fc on HEK293T.hEFNA4 cells (FIG. 20B).

The target in experiment [3] is T3, mouse ephrin-A4-His (mouse, UniProt O08542 26-175, limits assumed).
T3 construct: also called murine EFNA4-His; not shown: His tag
T3 sequence (looked up): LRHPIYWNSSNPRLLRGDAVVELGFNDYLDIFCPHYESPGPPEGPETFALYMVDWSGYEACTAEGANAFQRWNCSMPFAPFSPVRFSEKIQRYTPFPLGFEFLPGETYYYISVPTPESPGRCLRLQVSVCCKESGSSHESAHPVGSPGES
Nature of the experiment: ELISA; titrated ephrin-A4-His coated, 0.5 ug/ml hSC4.15 (FIG. 13C).

The target of experiment [4] is T4, human ephrin-A4-His (human, UniProt P52798 26-170, limits assumed).
T4 construct: also called hEFNA4-ECD-His; EFNA4 His fusion protein; not shown: His tag
T4 sequence: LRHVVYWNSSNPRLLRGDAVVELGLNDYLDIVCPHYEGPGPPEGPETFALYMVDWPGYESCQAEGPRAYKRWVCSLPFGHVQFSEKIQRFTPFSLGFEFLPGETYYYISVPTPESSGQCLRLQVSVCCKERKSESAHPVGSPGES
The description is as above.

Experiment [5] addresses B1. Kind of experiment: cell-based or functional assay.
In experiment [6] the target is T5, EFNA4 antigen (human, UniProt P52798 26-170, limits assumed).
T5 construct: also called ephrin-A4 antigen
T5 sequence: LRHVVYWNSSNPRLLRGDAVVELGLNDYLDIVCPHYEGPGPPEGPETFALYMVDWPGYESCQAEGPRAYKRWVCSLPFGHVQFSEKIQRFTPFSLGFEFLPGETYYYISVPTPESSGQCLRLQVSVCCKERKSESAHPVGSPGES
Nature of the experiment: SPR (Biacore); fixed antibody, antigen concentration series; 1:1 Langmuir model.
Experimental: Finally, the affinity of selected modulators was measured by surface plasmon resonance (Biacore System, GE Healthcare). Based on a standard antigen concentration series and using a 1:1 Langmuir binding model, the Kd of the antibody binding to antigen and the kinetic constants kₒₙ and koff were determined.

Take B1: the binding result in experiment [1] and in experiment [2] was “no binding” throughout.

B2: hSC4.15 (antibody, V domains shown)
VH: EVQLVESGGGLVKPGGSLRLSCAASGFTFSTYGMSWVRQAPGKGLEWVATISSGGTYTYYPDSVKGRFKISRDNAKNSLYLQMNSLRAEDTAVYYCTRHDPNDGYYFLFAYWGQGTLVTVSS
VL: EIVLTQSPGTLSLSPGERATLSCKASQSVGNNVAWYQQKPGQAPRLLIYYASNRYTGIPDRFSGSGSGTDFTLTISRLEPEDFAVYYCQQHYSSPLTFGAGTKLEIK
notes: also called humanized SC4.15
As to B2, the binding result in experiment [3] is reported as “binds”. Further, the binding result in experiment [4] is recorded as “binds”. Also, in experiment [5], the “EC50 (pM) of killing, saporin-Fab in vitro cytotoxicity assay, HEK293T.hEFNA4 cells” value was determined as 13.7 pM and the “EC50 (pM) of killing, saporin-Fab in vitro cytotoxicity assay, PC3 cells” value was determined as 5.4 pM.

B3: hSC4.47 (antibody, human IgG1, V domains shown)
VH: QVQLVQSGAEVKKPGASVKVSCKASGYTFTYFYMNWVRQAPGQGLEWVGQINPNNGGTAYAQKFQGRVTMTRDTSTSTVYMELSSLRSEDTAVYYCARWVGTHYFDYWGQGTTLTVSS
VL: EIVLTQSPATLSLSPGERATLSCRASQSVSSSSYTYIHWYQQKPGQAPRLLINFASNLESGIPARFSGSGSGTDFTLTISSLEPEDFAVYYCQHSWEIPPTFGGGTKLEIK
notes: also called humanized SC4.47
B3: the Kd in experiment [6] is under 0.1 nM.
